Assay results from publication PMC12871924, “Human FASTK preferentially binds single‐stranded and G‐rich RNA”.

Key:
FASTK∆N1-75 [1] = biological target: T1, FASTK∆N1-75 (Homo sapiens, UniProt Q14296 76-549, del1-75); test: MST; same as unmutated oligo 5; MST: 1x PBS, 5% glycerol, 1 mM DTT, Tween-20 (0.05% in RNA stock), 20 nM RNA, 22 °C; RNA annealed in 50 mM Tris/HCl pH 7.5, 50 mM KCl (or LiCl), 50 mM NaCl; EMSA: same solutions, on ice; footprinting: 1x Structure Buffer, 37 °C; conditions: protein: recombinant; tags: His6-SUMO cleaved; label: Cy5 body (CTP or UTP)
T1 sequence: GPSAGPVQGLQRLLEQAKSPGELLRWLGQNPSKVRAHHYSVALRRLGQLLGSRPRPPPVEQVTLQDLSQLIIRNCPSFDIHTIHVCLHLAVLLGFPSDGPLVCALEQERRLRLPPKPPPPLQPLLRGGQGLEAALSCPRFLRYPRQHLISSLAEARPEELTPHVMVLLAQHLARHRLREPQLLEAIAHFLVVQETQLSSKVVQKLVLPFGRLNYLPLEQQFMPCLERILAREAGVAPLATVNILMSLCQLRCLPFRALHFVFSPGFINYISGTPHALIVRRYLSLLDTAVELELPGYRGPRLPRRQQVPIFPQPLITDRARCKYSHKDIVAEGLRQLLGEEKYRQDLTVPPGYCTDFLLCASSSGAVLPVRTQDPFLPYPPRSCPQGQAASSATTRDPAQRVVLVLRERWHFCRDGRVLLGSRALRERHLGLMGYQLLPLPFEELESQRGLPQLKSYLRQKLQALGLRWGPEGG

FASTK∆N1-75 [2] = biological target: T1, FASTK∆N1-75; test: MST; MST: 1x PBS, 5% glycerol, 1 mM DTT, Tween-20 (0.05% in RNA stock), 20 nM RNA, 22 °C; RNA annealed in 50 mM Tris/HCl pH 7.5, 50 mM KCl (or LiCl), 50 mM NaCl; EMSA: same solutions, on ice; footprinting: 1x Structure Buffer, 37 °C; conditions: protein: recombinant, tags: His6-SUMO cleaved
[3] = biological target: T2, FASTK∆N1-75 R249/R251 mutant (Homo sapiens, UniProt Q14296 76-549, R249A;R251A;del1-75); test: as above; conditions: protein: recombinant; tags: His6-SUMO cleaved; label: Cy5 body (CTP or UTP); 5' 32P in footprinting; predicted G4
T2 sequence: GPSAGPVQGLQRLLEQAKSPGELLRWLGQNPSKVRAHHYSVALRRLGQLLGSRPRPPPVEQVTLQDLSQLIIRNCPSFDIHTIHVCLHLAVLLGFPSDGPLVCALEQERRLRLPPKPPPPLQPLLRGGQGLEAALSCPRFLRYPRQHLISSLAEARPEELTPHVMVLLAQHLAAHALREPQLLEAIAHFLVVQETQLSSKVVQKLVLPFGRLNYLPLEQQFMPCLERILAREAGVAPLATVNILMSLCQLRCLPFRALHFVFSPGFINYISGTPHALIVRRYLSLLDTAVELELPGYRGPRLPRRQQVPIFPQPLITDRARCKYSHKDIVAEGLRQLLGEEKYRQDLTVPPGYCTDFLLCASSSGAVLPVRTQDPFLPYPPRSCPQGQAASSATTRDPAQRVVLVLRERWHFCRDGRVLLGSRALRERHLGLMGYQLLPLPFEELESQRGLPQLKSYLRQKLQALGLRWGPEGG

FASTK∆N1-75 [4] = biological target: T1, FASTK∆N1-75; test: MST; same as unmutated oligo 10; MST: 1x PBS, 5% glycerol, 1 mM DTT, Tween-20 (0.05% in RNA stock), 20 nM RNA, 22 °C; RNA annealed in 50 mM Tris/HCl pH 7.5, 50 mM KCl (or LiCl), 50 mM NaCl; EMSA: same solutions, on ice; footprinting: 1x Structure Buffer, 37 °C; conditions: protein: recombinant; tags: His6-SUMO cleaved; label: Cy5 body (CTP or UTP)
FASTK∆N1-75 [5] = biological target: T1, FASTK∆N1-75; test: MST; K+ annealed; MST: 1x PBS, 5% glycerol, 1 mM DTT, Tween-20 (0.05% in RNA stock), 20 nM RNA, 22 °C; RNA annealed in 50 mM Tris/HCl pH 7.5, 50 mM KCl (or LiCl), 50 mM NaCl; EMSA: same solutions, on ice; footprinting: 1x Structure Buffer, 37 °C; conditions: protein: recombinant, tags: His6-SUMO cleaved, label: Cy5
FASTK∆N1-75 [6] = biological target: T1, FASTK∆N1-75; test: MST; 100 mM K+, no Na+; better than AU-rich mutant; MST: 1x PBS, 5% glycerol, 1 mM DTT, Tween-20 (0.05% in RNA stock), 20 nM RNA, 22 °C; RNA annealed in 50 mM Tris/HCl pH 7.5, 50 mM KCl (or LiCl), 50 mM NaCl; EMSA: same solutions, on ice; footprinting: 1x Structure Buffer, 37 °C; conditions: protein: recombinant; tags: His6-SUMO cleaved; label: Cy5

B1: ND6 oligo 5 G4kill mutant (ssRNA)
RNA: GAGUGGUCAGAGUUGAUUCGUGAGGAUCCUAUUGGUGCGGAGGCUUUGUAUGAUUAUGUGCGUUGAUUAGUAGUAGUUACUGGUUGAACAUUGUUUGUUGGUGUAUAUAUUGUAAUUGAGAUUGC
B1: binds (FASTK∆N1-75 [1]).

B2: ND6 oligo 5 (structured_RNA)
RNA: GAGGGGUCAGGGUUGAUUCGGGAGGAUCCUAUUGGUGCGGGGGCUUUGUAUGAUUAUGGGCGUUGAUUAGUAGUAGUUACUGGUUGAACAUUGUUUGUUGGUGUAUAUAUUGUAAUUGAGAUUGC
For B2, the Kd (FASTK∆N1-75 [2]; label: Cy5 body (CTP or UTP), 5' 32P in footprinting, predicted G4) was 25.5 nM and the binding signal [3] was 5 fold decrease vs wild type.

B3: ND6 oligo 10 G4kill mutant (ssRNA)
RNA: GGAGGAUUGUUGUUUGGAAGGUGGAUGCGGAGGAAAUGUUGUUAGUAAUGAGAAAUCCUGCGAAUAGGCUUCCGG
B3: binds (FASTK∆N1-75 [4]).

B4: ND6 oligo 10 (structured_RNA)
RNA: GGGGGAUUGUUGUUUGGAAGGGGGAUGCGGGGGAAAUGUUGUUAGUAAUGAGAAAUCCUGCGAAUAGGCUUCCGG
B4 showed a Kd (FASTK∆N1-75 [2]; label: Cy5 body (CTP or UTP), predicted G4) of 18.5 nM.

Binder UUAGGGUUAGGGUUAGGGUUAGGG (structured_RNA) [TERRA] has a Kd (FASTK∆N1-75 [5]; G4 intramolecular in K+) of 2.4 nM.

UUUUCUGUUUUUUC (ssRNA) [U-rich short RNA] was tested, and the Kd (FASTK∆N1-75 [2]; label: Cy5) was 63.2 nM.

In the case of UUAGAGUUAGUGUUAGAGUUAGUG (ssRNA) [TERRA AU-rich mutant], the Kd (FASTK∆N1-75 [5]) is reported as 6.4 nM.

UUACCCUUACCCUUACCCUUACCC (ssRNA) [TERRA C-rich mutant]: binds (FASTK∆N1-75 [6]).

For GGGUCUGUGGGGUC (ssRNA) [G-rich short RNA (internal loop strand 2)], the Kd (FASTK∆N1-75 [2]; label: Cy5) was 2.7 nM.

For AAAUCUGUAAAAUC (ssRNA) [A-rich short RNA], the Kd (FASTK∆N1-75 [2]; label: Cy5) was 78.4 nM.

CCCUCUGUCCCCUC (ssRNA) [C-rich short RNA] showed a Kd (FASTK∆N1-75 [2]; label: Cy5) of 212 nM.
